The results in this text go back to the supplement of paper PMC10567573.

B1: CDC25B (parent)
chain: FVDILESDLKDDDAVPPGMESLIS
B2: PTPN9 (parent)
chain: NKWTVQYNVSPLSWNVAVKFLMAR
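Note: lentivirally expressed fusions sorted by FACS into six bins by GFP to DsRed ratio, PSI derived from sequencing read proportions per bin multiplied by bin number.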

In one data set the parent is B1. In words: protein stability index of a GFP-peptide fusion (GPS, HEK-293T) (PSI 1-6); higher = more stable. To be noted: c terminus: a fixed tail appended.
Consider FVAILESDLKDDDAVPPGMESLIS [D3A], for which the protein stability index came out at 2.65.

Regarding FVEILESDLKDDDAVPPGMESLIS [D3E], the protein stability index was 3.46.

In the case of FVCILESDLKDDDAVPPGMESLIS [D3C], the protein stability index was 2.4.

WVDILESDLKDDDAVPPGMESLIS [F1W]: the protein stability index was 2.5.

For PVDILESDLKDDDAVPPGMESLIS [F1P], the protein stability index is 5.46.

CVDILESDLKDDDAVPPGMESLIS [F1C]: the protein stability index came out at 4.49.

As to NVDILESDLKDDDAVPPGMESLIS [F1N], the protein stability index worked out at 5.3.

Consider IVDILESDLKDDDAVPPGMESLIS [F1I], for which the protein stability index is 4.33.

For MVDILESDLKDDDAVPPGMESLIS [F1M], the protein stability index turned out to be 4.59.

Regarding LVDILESDLKDDDAVPPGMESLIS [F1L], the protein stability index turned out to be 4.81.

Regarding AVDILESDLKDDDAVPPGMESLIS [F1A], the protein stability index is 5.

Regarding VVDILESDLKDDDAVPPGMESLIS [F1V], the protein stability index came out at 4.08.

For KVDILESDLKDDDAVPPGMESLIS [F1K], the protein stability index worked out at 5.17.

Consider TVDILESDLKDDDAVPPGMESLIS [F1T], for which the protein stability index worked out at 5.31.

In the case of QVDILESDLKDDDAVPPGMESLIS [F1Q], the protein stability index was 5.4.

As for DVDILESDLKDDDAVPPGMESLIS [F1D], the protein stability index was 5.24.

Regarding HVDILESDLKDDDAVPPGMESLIS [F1H], the protein stability index came to 5.4.

In the case of GVDILESDLKDDDAVPPGMESLIS [F1G], the protein stability index amounted to 5.23.

EVDILESDLKDDDAVPPGMESLIS [F1E]: the protein stability index came to 5.37.

As to YVDILESDLKDDDAVPPGMESLIS [F1Y], the protein stability index worked out at 3.83.

Regarding SVDILESDLKDDDAVPPGMESLIS [F1S], the protein stability index is 5.39.

Regarding RVDILESDLKDDDAVPPGMESLIS [F1R], the protein stability index worked out at 4.96.

Turning to FLDILESDLKDDDAVPPGMESLIS [V2L], the protein stability index stood at 3.73.

FDDILESDLKDDDAVPPGMESLIS [V2D]: the protein stability index amounted to 5.14.

FTDILESDLKDDDAVPPGMESLIS [V2T]: the protein stability index was found to be 4.43.

FEDILESDLKDDDAVPPGMESLIS [V2E]: the protein stability index turned out to be 5.29.

Consider FHDILESDLKDDDAVPPGMESLIS [V2H], for which the protein stability index worked out at 4.68.

For FCDILESDLKDDDAVPPGMESLIS [V2C], the protein stability index is 3.65.

In the case of FGDILESDLKDDDAVPPGMESLIS [V2G], the protein stability index was 3.81.

With FWDILESDLKDDDAVPPGMESLIS [V2W], the protein stability index was determined as 3.32.

On to FADILESDLKDDDAVPPGMESLIS [V2A], for which the protein stability index amounted to 4.51.

As to FNDILESDLKDDDAVPPGMESLIS [V2N], the protein stability index is 4.96.

For the variant FFDILESDLKDDDAVPPGMESLIS [V2F], the protein stability index is 4.08.

Take FRDILESDLKDDDAVPPGMESLIS [V2R]: the protein stability index was 4.31.

As for FMDILESDLKDDDAVPPGMESLIS [V2M], the protein stability index amounted to 4.76.

Consider FSDILESDLKDDDAVPPGMESLIS [V2S], for which the protein stability index was 5.04.

For FYDILESDLKDDDAVPPGMESLIS [V2Y], the protein stability index stood at 4.29.

Take FIDILESDLKDDDAVPPGMESLIS [V2I]: the protein stability index was found to be 3.8.

Consider FKDILESDLKDDDAVPPGMESLIS [V2K], for which the protein stability index was 4.67.

For the variant FPDILESDLKDDDAVPPGMESLIS [V2P], the protein stability index was determined as 4.8.

On to FQDILESDLKDDDAVPPGMESLIS [V2Q], for which the protein stability index is 3.98.

Variants of B2 are the subject of the next data set. The description is as above. To be noted: c terminus: a fixed tail appended.
NKWTVQYNVSPLSWTVAVKFLMAR [N15T]: the protein stability index was determined as 2.89.

For NKWTVQYNVSPLSWMVAVKFLMAR [N15M], the protein stability index turned out to be 2.53.

Take NKWTVQYNVSPLSWIVAVKFLMAR [N15I]: the protein stability index was 3.96.

Consider NKWTVQYNVSPLSWLVAVKFLMAR [N15L], for which the protein stability index worked out at 1.92.

As for NKWTVQYNVSPLSWKVAVKFLMAR [N15K], the protein stability index amounted to 4.23.

Consider NKWTVQYNVSPLSWYVAVKFLMAR [N15Y], for which the protein stability index worked out at 1.9.

With NKWTVQYNVSPLSWWVAVKFLMAR [N15W], the protein stability index turned out to be 2.27.

Consider NKWTVQYNVSPLSWAVAVKFLMAR [N15A], for which the protein stability index turned out to be 3.46.

In the case of NKWTVQYNVSPLSWPVAVKFLMAR [N15P], the protein stability index turned out to be 2.39.

Consider NKWTVQYNVSPLSWEVAVKFLMAR [N15E], for which the protein stability index worked out at 3.45.

Consider NKWTVQYNVSPLSWFVAVKFLMAR [N15F], for which the protein stability index was 2.02.

For NKWTVQYNVSPLSWNMAVKFLMAR [V16M], the protein stability index stood at 3.58.

For NKWTVQYNVSPLSWNDAVKFLMAR [V16D], the protein stability index worked out at 1.93.

NKWTVQYNVSPLSWNYAVKFLMAR [V16Y]: the protein stability index turned out to be 2.6.

In the case of NKWTVQYNVSPLSWNHAVKFLMAR [V16H], the protein stability index came out at 2.69.

NKWTVQYNVSPLSWNQAVKFLMAR [V16Q]: the protein stability index was 1.52.

Take NKWTVQYNVSPLSWNRAVKFLMAR [V16R]: the protein stability index came out at 3.68.

Consider NKWTVQYNVSPLSWNGAVKFLMAR [V16G], for which the protein stability index was determined as 2.55.

Take NKWTVQYNVSPLSWNFAVKFLMAR [V16F]: the protein stability index was determined as 3.88.

With NKWTVQYNVSPLSWNSAVKFLMAR [V16S], the protein stability index is 1.87.

Regarding NKWTVQYNVSPLSWNLAVKFLMAR [V16L], the protein stability index was 2.38.

As for NKWTVQYNVSPLSWNAAVKFLMAR [V16A], the protein stability index turned out to be 2.35.

Regarding NKWTVQYNVSPLSWNNAVKFLMAR [V16N], the protein stability index was determined as 1.51.

As for NKWTVQYNVSPLSWNCAVKFLMAR [V16C], the protein stability index came out at 3.82.

With NKWTVQYNVSPLSWNKAVKFLMAR [V16K], the protein stability index was determined as 3.3.

Consider NKWTVQYNVSPLSWNEAVKFLMAR [V16E], for which the protein stability index is 2.65.

As to NKWTVQYNVSPLSWNPAVKFLMAR [V16P], the protein stability index was 1.99.

For NKWTVQYNVSPLSWNVAVKFLMQR [A23Q], the protein stability index was 2.55.

With NKWTVQYNVSPLSWNVAVKFLMLR [A23L], the protein stability index worked out at 4.22.

Regarding NKWTVQYNVSPLSWNVAVKFLMDR [A23D], the protein stability index worked out at 2.21.

With NKWTVQYNVSPLSWNVAVKFLMVR [A23V], the protein stability index turned out to be 2.43.

With NKWTVQYNVSPLSWNVAVKFLMHR [A23H], the protein stability index was found to be 3.31.

On to NKWTVQYNVSPLSWNVAVKFLMIR [A23I], for which the protein stability index was found to be 2.44.

With NKWTVQYNVSPLSWNVAVKFLMSR [A23S], the protein stability index turned out to be 2.48.

Turning to NKWTVQYNVSPLSWNVAVKFLMFR [A23F], the protein stability index is 2.72.

With NKWTVQYNVSPLSWNVAVKFLMNR [A23N], the protein stability index was found to be 2.54.

For the variant NKWTVQYNVSPLSWNVAVKFLMPR [A23P], the protein stability index was 2.3.

Regarding NKWTVQYNVSPLSWNVAVKFLMCR [A23C], the protein stability index turned out to be 1.95.

With NKWTVQYNVSPLSWNVAVKFLMMR [A23M], the protein stability index turned out to be 3.33.

As for NKWTVQYNVSPLSWNVAVKFLMRR [A23R], the protein stability index stood at 2.58.

NKWTVQYNVSPLSWNVAVKFLMYR [A23Y]: the protein stability index came to 2.98.

As for NKWTVQYNVSPLSWNVASKFLMAR [V18S], the protein stability index was found to be 2.94.

For the variant NKWTVQYNVSPLSWNVAKKFLMAR [V18K], the protein stability index amounted to 2.72.

Turning to NKWTVQYNVSPLSWNVAYKFLMAR [V18Y], the protein stability index was 2.04.

NKWTVQYNVSPLSWNVATKFLMAR [V18T]: the protein stability index stood at 2.76.

Consider NKWTVQYNVSPLSWNVAHKFLMAR [V18H], for which the protein stability index amounted to 1.78.

NKWTVQYNVSPLSWNVAEKFLMAR [V18E]: the protein stability index was 1.49.

With NKWTVQYNVSPLSWNVAWKFLMAR [V18W], the protein stability index was 1.77.

Turning to NKWTVQYNVSPLSWNVAIKFLMAR [V18I], the protein stability index is 2.62.

NKWTVQYNVSPLSWNVAQKFLMAR [V18Q]: the protein stability index was determined as 1.49.

For NKWTVQYNVSPLSWNVAPKFLMAR [V18P], the protein stability index came to 1.28.

Turning to NKWTVQYNVSPLSWNVALKFLMAR [V18L], the protein stability index amounted to 2.72.

For the variant NKWTVQYNVSPLSWNVAAKFLMAR [V18A], the protein stability index came out at 2.48.
